# Data reported in paper PMC9674588, “Molecular recognition of a membrane-anchored HIV-1 pan-neutralizing epitope” (Communications Biology, 2022).
# “Also recorded” adds a separate entry of the source. Where no end group is shown, it is not given here.
# Experiments:
# Fab 10E8 [1] = test: Binding of KK114-Fab 10E8 to single GUVs containing the peptides reconstituted (confocal microscopy); settings: for Fab 10E8 binding vs TMD length and bilayer thickness (in words): GUVs of diC14:1PC, POPC, diC22:1PC
# Method: To that end, we quantified antibody binding to single vesicles by confocal microscopy of Giant Unilamellar Vesicles (GUVs) incubated with fluorescently labeled Fab 10E8[36],[47].
# Thus, to establish the influence of the bilayer thickness on the accessibility to the 10E8 epitope, we selected lipid bilayers made of diC14:1PC and diC22:1PC, which are respectively thinner and thicker than those made of POPC (C16:0-C18:1PC)[52],[53].
# To prepare lipid bilayers containing reconstituted peptide, lipids and MPER-TMD-derived peptides were mixed in organic solvent prior to the production of the liposomes. Briefly, POPC dissolved in chloroform:methanol 1:2 (vol:vol) was mixed with peptide dissolved in HFIP at the desired peptide-to-lipid molar ratio. The mixture was dried under a N2 stream and traces of organic solvents were removed by 1 h vacuum pumping. Subsequently, the dried lipid films were subjected to 2 h of gentle hydration with H2O using a N2 gas bubbler to facilitate further dispersion of the dried lipid-peptide film in PBS aqueous buffer. Next, the multilamellar vesicles were bath sonicated (1 h, 55 °C) and subjected to 15 freeze and thaw cycles to obtain unilamellar vesicles.
# For binding experiments, NBD-labeled GUVs were produced following the electro-formation method as previously described[47]. In brief, a total of 2 mM of lipid was dissolved in 200 μL CHCl3:CH3OH with the fluorescent probe NBD-PE (0.5%). When required, peptide dissolved in 10% (v/v) HFIP was included in the organic phase at 1:250 peptide-to-lipid molar ratio. The GUVs were added to a bovine serum albumin (BSA)-blocked microscope chamber that already included 250 nM of 10E8-based Fabs conjugated with the KK114 probe at residue C216HC, and were incubated for 15 min prior to imaging. […] Confocal microscopy images were acquired on an inverted confocal fluorescence microscope (Nikon Eclipse TE-2000, Nikon, Nikon Instruments, Tokyo, Japan). NBD-stained GUVs and Fabs conjugated with the KK114 probe were excited at 476 nm and 637 nm, respectively. […] The band pass filters used were 515/30 and Long Pass 650 nm. […]
# [2] = Infrared spectroscopy (amide I) of peptides reconstituted in lipid bilayers; type: physicochemical; settings: for IR amide-I band area, 1630 cm^−1 (solvated helices) / IR amide-I band area, 1642 cm^−1 (helix-helix interactions/disordered) / IR amide-I band area, 1655 cm^−1 (α-helix) / IR amide-I band area, 1670 cm^−1 (turns): monounsaturated PC, D2O PBS
# From the text: In addition, the lipid bilayer distance covered by the hydrocarbon acyl chains strongly conditions the favorable interactions between TMDs and lipids, so that a mismatch between this distance and the TMD length can give rise to alterations in the structure and function of the integral membrane proteins. Therefore, to rule out DC effects on the conformations adopted by the reconstituted MPER-TMD peptides, we performed IR experiments and varied systematically this parameter utilizing a complete series of monounsaturated PCs (i.e., diC14:1PC, diC16:1PC, diC18:1PC, diC20:1PC and diC22:1PC)[55].
# Infrared spectra were recorded in a Bruker Tensor 27 spectrometer equipped with a mercury-cadmium-telluride detector using a Peltier-based temperature controller (TempCon, BioTools Inc., Wauconda, IL) with calcium fluoride cells (BioCell, BioTools Inc., Wauconda, IL). Lipid vesicles with the peptides reconstituted were lyophilized and subsequently prepared at 3 mg/mL in D2O buffer (PBS). A 25 μL sample aliquot was deposited on a cell that was sealed with a second cell. Reference windows without peptide were prepared similarly. Typically, 1000 scans were collected for each background and sample, and the spectra were obtained with a nominal resolution of 2 cm^−1. Data treatment and band decomposition of the original amide I have been described elsewhere.
# Fab 10E8 [3] = test: AFM single-molecule force spectroscopy of Fab 10E8-peptide unbinding in POPC SPBs; type: binding; settings: for MPRF (most probable rupture force), mean: 1:50
# Method: SPBs were produced by the vesicle adsorption method and their topography analyzed using a Nanowizard III AFM (JPK Instruments) under contact mode. Briefly, approximately 30 µl of the vesicle suspensions described above were deposited onto freshy cleaved mica disks (area 15 mm^2) preincubated with 30 µl of 150 mM KCl, 10 mM Tris, pH = 7.4 (measurement buffer) and incubated for 30 min at room temperature, leading to the formation of SPBs. The samples were carefully rinsed with measurement buffer before the AFM experiment and always kept under aqueous environment. BL-AC40-C2 Si3N4 cantilevers (Olympus, Japan) with a nominal spring constant of 0.09 N/m were used for bilayer imaging with 0.5 nN of force applied.
# For single molecule force spectroscopy, MLCT-BIO probes (Bruker, Santa Barbara, CA USA) were functionalized with Fab 10E8 using well established protocols. To that end, cantilevers were first rinsed with acetone and water, exposed to UV-ozone and coated with 3-Aminopropyldimethylethoxysilane (APDMES). They were then incubated with glutaraldehyde and finally with Fab. Finally, to passivate possible unreacted aldehyde moieties, cantilevers were incubated in 0.1% Bovine Serum Albumin (BSA) for 1 h at room temperature and rinsed in measurement buffer prior to use. Force maps were recorded using a maximum applied force of 0.2 nN, a varying contact time of 0.5, 1, 2 and 5 s and varying retraction speeds of 0.1 µm/s, 2 µm/s and 10 µm/s. Data were analyzed with the data processing software from JPK Instruments (Berlin, Germany).
# To determine the MPRF at a given loading rate the frequency histograms of the measured forces were fitted to a Gaussian distribution (Eq. 1) and its maximum calculated.1 y=Amplitude⋅exp−0.5⋅x−Mean/SD^2
# MPRF is a function of the loading rate as defined by (Eq. 2):2 MPRF=kβ⋅T/χβlnrf⋅χβ/koff⋅kβ⋅T where kβ is Boltzmann constant, T is the temperature, koff is the natural dissociation rate at zero force and rf is the loading rate.
# These parameters can be actually obtained from the slope of the linear fit of the data, and by linearly extrapolating the experimental data to zero external force, respectively.
# [4] = GUV permeabilization (soluble KK114 entry); settings: POPC GUVs with peptide reconstituted
# Method: When required, peptide dissolved in 10% (v/v) HFIP was included in the organic phase at 1:250 peptide-to-lipid molar ratio. […] For GUV permeabilization assays, GUVs were added to a BSA-blocked microscope chamber that already included the unconjugated and soluble KK114 dye, and were incubated for 15 min prior to imaging. Confocal microscopy images were acquired on an inverted confocal fluorescence microscope (Nikon Eclipse TE-2000, Nikon, Nikon Instruments, Tokyo, Japan). […] The band pass filters used were 515/30 and Long Pass 650 nm. The objective used was a 63X oleo immersion with a numerical aperture (NA) of 1.2.
# [5] = Breakthrough force of POPC SPBs (FS-AFM); settings: peptide-to-lipid 1:50
# From the text: Permeabilization of single vesicles correlated with effects of the reconstituted peptides on the nanomechanical stability of SPBs analyzed by FS-AFM[57] (Fig. 6b). In this approach, we measured the breakthrough forces of the different SPBs to quantitatively determine the nanomechanical resistance to membrane rupture. By comparing the AFM tip indentations through the different bilayer systems at the same approach speed, we measured the discontinuity in the approach curve which corresponds to the breakthrough force; a parameter widely used to assign the mechanical stability of SPBs[57]. […] This increase was even larger than that observed in an SPB containing 50 mol % cholesterol, which was added as a stiffening-control sample to the analysis. […]
# SPBs were produced by the vesicle adsorption method and their topography analyzed using a Nanowizard III AFM (JPK Instruments) under contact mode. […]
# Force spectroscopy data for SPB breakthrough measurements were collected using SNL10 Si3N4 cantilever (Bruker, Santa Barbara, CA, USA) with a nominal spring constant of 0.35 N/m, at a speed of 1 µm/s and applying 10 nN of maximum force. Discontinuities in the force versus separation approach curve were determined for each of the indentation curves as reproducible jumps within the extended traces using JPK data processing software.
# [6] = Vesicle flotation (incorporation of reconstituted peptides into membranes); type: physicochemical; settings: POPC, 1:50 mol:mol, flotation in sucrose gradient, Western blot
# From the text: Supplementary Figure 4: Incorporation of reconstituted peptides into membranes. (a) Diagram illustrating the Liposome flotation method. Liposome-peptide co mplex es were subjected to ultracentrifugation in a sucrose gradi ent after the reconstitution process. (b) The pres ence of th e peptides in the floated and non- floated fractions o f the gradient and in the original sample (input) as reveal ed b y Western Blot anal ysis aft er Tris -Tricine SDS-PAGE separation. Line plots below […]
# liposomes. The peptide-to-lipid ratio was 1:50 (mol:mol).
# (1 picture or pasted object on this page, not shown here)
# [7] = hydrocarbon thickness DC 22.8 Å
# [8] = reconstituted in POPC bilayers, 1:50
substance,measurement,setting,value
"C-MPER-TMD700: Env residues 671–700, HXB2 numbering, containing a minimal TMD anchor and Lys-tags added at both ends (NWFNITNWLWYIKLFIMIVGGLVGLRIVFA; also: Lys-tags added at both ends, length not given here; UniProt P04578 671-700, looked up, fragment)",Fab 10E8 binding vs TMD length and bilayer thickness (in words),Fab 10E8 [1],C-MPER-TMDLLA-709 > C-MPER-TMD709 > C-MPER-TMD700
same,"IR amide-I band area, 1630 cm^−1 (solvated helices)",[2]; DC 25.6 Å,8.1%
same,"IR amide-I band area, 1642 cm^−1 (helix-helix interactions/disordered)",[2]; DC 25.6 Å,31.2%
same,"IR amide-I band area, 1655 cm^−1 (α-helix)",[2]; DC 25.6 Å,52.3%
same,"IR amide-I band area, 1670 cm^−1 (turns)",[2]; DC 25.6 Å,7%
same,"IR amide-I band area, 1630 cm^−1 (solvated helices)",[2]; DC 29 Å,8.4%
same,"IR amide-I band area, 1642 cm^−1 (helix-helix interactions/disordered)",[2]; DC 29 Å,39.3%
same,"IR amide-I band area, 1655 cm^−1 (α-helix)",[2]; DC 29 Å,48.1%
same,"IR amide-I band area, 1670 cm^−1 (turns)",[2]; DC 29 Å,2.6%
same,"IR amide-I band area, 1630 cm^−1 (solvated helices)",[2]; DC 32 Å,6.4%
same,"IR amide-I band area, 1642 cm^−1 (helix-helix interactions/disordered)",[2]; DC 32 Å,39.8%
same,"IR amide-I band area, 1655 cm^−1 (α-helix)",[2]; DC 32 Å,49.8%
same,"IR amide-I band area, 1670 cm^−1 (turns)",[2]; DC 32 Å,3.9%
same,"IR amide-I band area, 1630 cm^−1 (solvated helices)",[2]; DC 35 Å,3.1%
same,"IR amide-I band area, 1642 cm^−1 (helix-helix interactions/disordered)",[2]; DC 35 Å,52%
same,"IR amide-I band area, 1655 cm^−1 (α-helix)",[2]; DC 35 Å,39.7%
same,"IR amide-I band area, 1670 cm^−1 (turns)",[2]; DC 35 Å,1%
same,"IR amide-I band area, 1630 cm^−1 (solvated helices)",[2]; [7],5.8%
same,"IR amide-I band area, 1642 cm^−1 (helix-helix interactions/disordered)",[2]; [7],35.1%
same,"IR amide-I band area, 1655 cm^−1 (α-helix)",[2]; [7],51.8%
same,"IR amide-I band area, 1670 cm^−1 (turns)",[2]; [7],7.4%
"C-MPER-TMD709: Env residues 671–709, HXB2 numbering, which included the nominal Env TMD sequence (Env residues 684–709) (NWFNITNWLWYIKLFIMIVGGLVGLRIVFAVLSIVNRVR; UniProt P04578 671-709, looked up, fragment)",Fab 10E8 binding vs TMD length and bilayer thickness (in words),Fab 10E8 [1],C-MPER-TMDLLA-709 > C-MPER-TMD709 > C-MPER-TMD700
same,Fab 10E8 binding to GUVs (in words),"Fab 10E8 [1]; POPC GUVs, peptide-to-lipid 1:250, 250 nM Fab",appeared to bind more efficiently to C-MPER-TMD709-containing vesicles than to the N/C-MPER683-containing ones
same,koff ratio among peptides,"Fab 10E8 [3]; N/C-MPER683 vs C-MPER-TMD709, POPC SPBs",≈ 22
same,attachment (binding) frequency (in words),"Fab 10E8 [3]; POPC SPBs, vs N/C-MPER683, contact time series, retraction 2 μm s^−1",attachment appeared to occur at higher frequency
same,MPRF (in words),"Fab 10E8 [3]; POPC SPBs, contact time 0.5 s, loading rate 41 nN s^−1, vs N/C-MPER683",clearly shifted to higher values
same,t0.5(N/C-MPER)/t0.5(C-MPER-TMD),"Fab 10E8 [3]; interaction time for half maximal probability of binding, POPC SPBs",≈ 1.4
same,"MPRF (most probable rupture force), mean","Fab 10E8 [3]; ln (loading rate pN/s) 3.62033, POPC SPBs",33.4766 pN
same,"MPRF (most probable rupture force), mean","Fab 10E8 [3]; ln (loading rate pN/s) 4.62006, POPC SPBs",53.13 pN
same,"MPRF (most probable rupture force), mean","Fab 10E8 [3]; ln (loading rate pN/s) 6.62009, POPC SPBs",93.3506 pN
same,"MPRF (most probable rupture force), mean","Fab 10E8 [3]; ln (loading rate pN/s) 7.62012, POPC SPBs",73.97 pN
same,"MPRF (most probable rupture force), mean","Fab 10E8 [3]; ln (loading rate pN/s) 8.62012, POPC SPBs",81.12 pN
same,"MPRF (most probable rupture force), mean","Fab 10E8 [3]; ln (loading rate pN/s) 9.62012, POPC SPBs",90.66 pN
same,"MPRF (most probable rupture force), mean","Fab 10E8 [3]; ln (loading rate pN/s) 10.6201, POPC SPBs",135 pN
same,permeabilization (in words),[4],viewed as empty spheres; also recorded: essentially impermeable
same,breakthrough force (in words),[5],increased the values of the forces at which rupture was observed
same,incorporation into membranes (in words),[6],total incorporation
same,"IR amide-I band area, 1630 cm^−1 (solvated helices)",[2]; DC 25.6 Å,18.9%
same,"IR amide-I band area, 1642 cm^−1 (helix-helix interactions/disordered)",[2]; DC 25.6 Å,31%
same,"IR amide-I band area, 1655 cm^−1 (α-helix)",[2]; DC 25.6 Å,41.6%
same,"IR amide-I band area, 1670 cm^−1 (turns)",[2]; DC 25.6 Å,4.9%
same,"IR amide-I band area, 1630 cm^−1 (solvated helices)",[2]; DC 29 Å,14%
same,"IR amide-I band area, 1642 cm^−1 (helix-helix interactions/disordered)",[2]; DC 29 Å,33.4%
same,"IR amide-I band area, 1655 cm^−1 (α-helix)",[2]; DC 29 Å,45.2%
same,"IR amide-I band area, 1670 cm^−1 (turns)",[2]; DC 29 Å,4.6%
same,"IR amide-I band area, 1630 cm^−1 (solvated helices)",[2]; DC 32 Å,16%
same,"IR amide-I band area, 1642 cm^−1 (helix-helix interactions/disordered)",[2]; DC 32 Å,34.8%
same,"IR amide-I band area, 1655 cm^−1 (α-helix)",[2]; DC 32 Å,43.2%
same,"IR amide-I band area, 1670 cm^−1 (turns)",[2]; DC 32 Å,3.4%
same,"IR amide-I band area, 1630 cm^−1 (solvated helices)",[2]; DC 35 Å,15.8%
same,"IR amide-I band area, 1642 cm^−1 (helix-helix interactions/disordered)",[2]; DC 35 Å,40%
same,"IR amide-I band area, 1655 cm^−1 (α-helix)",[2]; DC 35 Å,38.5%
same,"IR amide-I band area, 1670 cm^−1 (turns)",[2]; DC 35 Å,2.9%
same,"IR amide-I band area, 1630 cm^−1 (solvated helices)",[2]; [7],20%
same,"IR amide-I band area, 1642 cm^−1 (helix-helix interactions/disordered)",[2]; [7],34.5%
same,"IR amide-I band area, 1655 cm^−1 (α-helix)",[2]; [7],33.8%
same,"IR amide-I band area, 1670 cm^−1 (turns)",[2]; [7],6.4%
same,IR amide-I absorption maximum,[2]; [8],around 1650 cm^−1
same,IR amide-I band component,[2]; [8],1642 cm⁻¹
